The record followed here is the supplement of paper PMC9112550, “Optimization of the antimicrobial peptide Bac7 by deep mutational scanning” (BMC Biology, 2022).

In this data set the test system is Escherichia coli TOP10. As to the kind of experiment: shrunken log2 fold change of peptide-encoding DNA abundance (4.5 h post-induction vs induction); higher = less antimicrobial activity (less host growth inhibition). As to conditions: time post-induction: 4.5 h; library: site-saturation at positions 5, 18, 19, 20.
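Further: peptides expressed intracellularly from a pBAD plasmid library in pooled LB shake-flask culture, induced with 0.3% L-arabinose, DNA abundance read by NGS, three biological replicates, DESeq2 with apeglm shrinkage.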

For RRIRGRPPRLPRPRPRPFSFPRP, the “shrunken log2 fold change” value came out at 0.268. For RRIRFRPPRLPRPRPRPRMEPRP the value was -0.00899.

Consider RRIRQRPPRLPRPRPRPYIYPRP, for which the “shrunken log2 fold change” value was -0.0737. The result for RRIRYRPPRLPRPRPRPPFCPRP reads -0.332; that for RRIRLRPPRLPRPRPRPIQQPRP, -0.0102. The result for RRIRARPPRLPRPRPRPMPDPRP reads 0.74; that for RRIRIRPPRLPRPRPRPYHQPRP, 0.0196. For RRIRVRPPRLPRPRPRPRCTPRP the value was 0.0149. Consider RRIRWRPPRLPRPRPRPKHYPRP, for which the “shrunken log2 fold change” value amounted to 0.473.

Consider RRIRVRPPRLPRPRPRPFRCPRP, for which the “shrunken log2 fold change” value is -0.123. The result for RRIRLRPPRLPRPRPRPGSSPRP reads 0.0118.

RRIRMRPPRLPRPRPRPYQAPRP: the “shrunken log2 fold change” value was 2.21. The result for RRIRSRPPRLPRPRPRPFVMPRP reads -0.0833.

RRIRTRPPRLPRPRPRPDVYPRP: the “shrunken log2 fold change” value was 0.00573. For the sequence RRIRVRPPRLPRPRPRPFQCPRP, the “shrunken log2 fold change” value is -0.0433. The result for RRIRCRPPRLPRPRPRPIMMPRP reads -0.211; that for RRIRCRPPRLPRPRPRPMMSPRP, -0.0652; that for RRIRWRPPRLPRPRPRPCRQPRP, -0.134. The result for RRIRCRPPRLPRPRPRPQYHPRP reads -0.425.

RRIRHRPPRLPRPRPRPDIMPRP: the “shrunken log2 fold change” value is -0.261.

For RRIRNRPPRLPRPRPRPSEFPRP, the “shrunken log2 fold change” value was -0.109. Turning to RRIRIRPPRLPRPRPRPLWWPRP, the “shrunken log2 fold change” value is 0.266.

As for RRIRERPPRLPRPRPRPNDPPRP, the “shrunken log2 fold change” value was -0.488. The result for RRIRSRPPRLPRPRPRPHWTPRP reads -0.0566. The result for RRIRKRPPRLPRPRPRPHIPPRP reads -0.247.

For RRIRNRPPRLPRPRPRPWDLPRP, the “shrunken log2 fold change” value is 0.0191.

As to RRIRTRPPRLPRPRPRPPRLPRP, the “shrunken log2 fold change” value worked out at 0.343. Regarding RRIRWRPPRLPRPRPRPMQTPRP, the “shrunken log2 fold change” value came to 1. On to RRIRERPPRLPRPRPRPRLDPRP, for which the “shrunken log2 fold change” value turned out to be 0.0479. The result for RRIRMRPPRLPRPRPRPPAIPRP reads 0.911; that for RRIRRRPPRLPRPRPRPYKVPRP, -0.193; that for RRIRYRPPRLPRPRPRPFFDPRP, 1.09. For the sequence RRIRMRPPRLPRPRPRPDYLPRP, the “shrunken log2 fold change” value was -0.051. The result for RRIRSRPPRLPRPRPRPIGFPRP reads -0.0486; that for RRIRYRPPRLPRPRPRPFIMPRP, -0.313; that for RRIRRRPPRLPRPRPRPYTNPRP, -0.95.

As to RRIRDRPPRLPRPRPRPTEHPRP, the “shrunken log2 fold change” value was -0.109. For RRIRKRPPRLPRPRPRPLDFPRP the value was 0.188; for RRIRSRPPRLPRPRPRPVYPPRP, -0.11. For RRIRSRPPRLPRPRPRPDLYPRP the value was -0.171; for RRIRYRPPRLPRPRPRPLNLPRP, -0.369. For RRIRERPPRLPRPRPRPMSVPRP the value was -0.158. For the sequence RRIRCRPPRLPRPRPRPTFVPRP, the “shrunken log2 fold change” value is -0.161. For RRIRPRPPRLPRPRPRPFWYPRP, the “shrunken log2 fold change” value was -0.525. For RRIRMRPPRLPRPRPRPIIHPRP the value was -0.136; for RRIRGRPPRLPRPRPRPLEEPRP, 1.76. The result for RRIRSRPPRLPRPRPRPNRAPRP reads -0.0803; that for RRIRCRPPRLPRPRPRPWAGPRP, 0.124.

As for RRIRTRPPRLPRPRPRPLGNPRP, the “shrunken log2 fold change” value was -0.159. For RRIRIRPPRLPRPRPRPSNGPRP the value was 0.0107. For RRIRKRPPRLPRPRPRPFPLPRP the value was 0.289; for RRIRWRPPRLPRPRPRPIKSPRP, 0.0589; for RRIRVRPPRLPRPRPRPERYPRP, 0.133.

For the sequence RRIRSRPPRLPRPRPRPSCGPRP, the “shrunken log2 fold change” value was -0.0515. Turning to RRIRCRPPRLPRPRPRPPMWPRP, the “shrunken log2 fold change” value is 0.557. For the sequence RRIRSRPPRLPRPRPRPGFHPRP, the “shrunken log2 fold change” value was 0.0792. For RRIRKRPPRLPRPRPRPDMTPRP the value was 1.34. For RRIRKRPPRLPRPRPRPLPKPRP the value was 0.54; for RRIRPRPPRLPRPRPRPAFEPRP, 0.139; for RRIRFRPPRLPRPRPRPIGKPRP, -0.0112. The result for RRIRPRPPRLPRPRPRPNMQPRP reads -0.313; that for RRIRVRPPRLPRPRPRPWKQPRP, -0.0479; that for RRIRWRPPRLPRPRPRPRDMPRP, -0.255. As for RRIRNRPPRLPRPRPRPEKPPRP, the “shrunken log2 fold change” value was -0.233.

In the case of RRIRERPPRLPRPRPRPHLEPRP, the “shrunken log2 fold change” value is -0.0328. Take RRIRHRPPRLPRPRPRPTWIPRP: the “shrunken log2 fold change” value was -0.206.

In the case of RRIRHRPPRLPRPRPRPRHMPRP, the “shrunken log2 fold change” value was -0.0251. For RRIRGRPPRLPRPRPRPSSVPRP the value was 0.282; for RRIRDRPPRLPRPRPRPMSGPRP, -0.0837. The result for RRIRHRPPRLPRPRPRPSQSPRP reads -0.22; that for RRIRPRPPRLPRPRPRPREPPRP, 0.0876; that for RRIRYRPPRLPRPRPRPEEMPRP, -0.0902.

Take RRIRYRPPRLPRPRPRPITCPRP: the “shrunken log2 fold change” value was 0.014. For RRIRNRPPRLPRPRPRPAKCPRP the value was -0.384; for RRIRHRPPRLPRPRPRPSQRPRP, -0.102. As for RRIRWRPPRLPRPRPRPFIPPRP, the “shrunken log2 fold change” value is -1.15. The result for RRIRYRPPRLPRPRPRPDQSPRP reads -0.0117. The result for RRIRFRPPRLPRPRPRPRHYPRP reads -0.477; that for RRIRRRPPRLPRPRPRPQHDPRP, 0.478; that for RRIRMRPPRLPRPRPRPQLTPRP, 0.743. Turning to RRIRQRPPRLPRPRPRPDLAPRP, the “shrunken log2 fold change” value was -0.0142. For RRIRMRPPRLPRPRPRPCVNPRP the value was -0.111. The result for RRIRIRPPRLPRPRPRPMITPRP reads -0.616; that for RRIRMRPPRLPRPRPRPPFRPRP, 0.693; that for RRIRGRPPRLPRPRPRPLGAPRP, 1.07. In the case of RRIRERPPRLPRPRPRPAWHPRP, the “shrunken log2 fold change” value is 0.324. For RRIRARPPRLPRPRPRPSDYPRP the value was -0.108; for RRIRFRPPRLPRPRPRPARAPRP, 1.31. The result for RRIRHRPPRLPRPRPRPRVHPRP reads 0.0785. The result for RRIRYRPPRLPRPRPRPINAPRP reads -0.469; that for RRIRQRPPRLPRPRPRPIEEPRP, -0.00208; that for RRIRNRPPRLPRPRPRPLWMPRP, -0.587. On to RRIRGRPPRLPRPRPRPWECPRP, for which the “shrunken log2 fold change” value is -0.00149. The result for RRIRERPPRLPRPRPRPSYDPRP reads -0.301; that for RRIRERPPRLPRPRPRPDNDPRP, -0.259. The result for RRIRHRPPRLPRPRPRPCDMPRP reads -0.302. For RRIRNRPPRLPRPRPRPGIQPRP the value was 0.00115; for RRIRHRPPRLPRPRPRPHPKPRP, 0.0027; for RRIRFRPPRLPRPRPRPRFTPRP, 0.0956. With RRIRGRPPRLPRPRPRPDSLPRP, the “shrunken log2 fold change” value is -0.0456. The result for RRIRWRPPRLPRPRPRPPCPPRP reads 0.138. For RRIRERPPRLPRPRPRPIQLPRP the value was -0.446; for RRIRKRPPRLPRPRPRPVIWPRP, 0.153. For RRIRNRPPRLPRPRPRPLCYPRP the value was -0.781; for RRIRGRPPRLPRPRPRPVKAPRP, 0.659. RRIRWRPPRLPRPRPRPRANPRP: the “shrunken log2 fold change” value stood at 0.425.

With RRIRSRPPRLPRPRPRPAVNPRP, the “shrunken log2 fold change” value stood at 0.0811. For RRIRARPPRLPRPRPRPHKLPRP the value was 0.214; for RRIRIRPPRLPRPRPRPDNWPRP, -0.128; for RRIRHRPPRLPRPRPRPYYKPRP, -0.913. Turning to RRIRVRPPRLPRPRPRPYSKPRP, the “shrunken log2 fold change” value worked out at 0.12.

For RRIRARPPRLPRPRPRPVLQPRP, the “shrunken log2 fold change” value stood at 1.09. The result for RRIRTRPPRLPRPRPRPYIRPRP reads -1.31. For RRIRLRPPRLPRPRPRPRAIPRP the value was 0.0282; for RRIRMRPPRLPRPRPRPLSGPRP, 0.815; for RRIRKRPPRLPRPRPRPLRRPRP, 0.689. For the sequence RRIRYRPPRLPRPRPRPGYCPRP, the “shrunken log2 fold change” value is -0.235. For RRIRDRPPRLPRPRPRPHTLPRP the value was -0.196; for RRIRCRPPRLPRPRPRPVYRPRP, -0.445. For RRIRYRPPRLPRPRPRPFVPPRP the value was -0.285.

For RRIRARPPRLPRPRPRPNSVPRP, the “shrunken log2 fold change” value is 0.0162. The result for RRIRQRPPRLPRPRPRPIPTPRP reads -0.0272; that for RRIRKRPPRLPRPRPRPRDRPRP, 1.26. For RRIRRRPPRLPRPRPRPQHMPRP, the “shrunken log2 fold change” value was -0.296.

On to RRIRIRPPRLPRPRPRPHFPPRP, for which the “shrunken log2 fold change” value was 0.00276.
